Columns and labels:
[1] = target: T1, recombinant human aggregated full-length TDP-43 (human, UniProt Q13148 1-414); assay: SPR, immobilized aggregated TDP-43
T1 construct: also called aggregated TDP-43; aggregated FL TDP-43
Experimental: (§1) Binding avidity to soluble or aggregated FL TDP-43 was evaluated by determing the dissociation constants (KD) using surface plasmon resonance (SPR; Biacore T200, GE Healthcare Life Sciences). Recombinant human soluble or aggregated FL TDP-43 were immobilized on a CM5 Series S sensor chip (GE Healthcare Life Sciences) by amine coupling. Soluble TDP-43 was immobilized at a concentration of 5 µg/ml in 10 mM sodium acetate (pH 4.5) with a flow rate of 5 µl/min for 420 seconds resulting in an immobilization level of 150 RU. Aggregated TDP-43 was immobilized at a concentration of 50 µg/ml in 10 mM sodium acetate (pH 4.5) with a flow rate of 5 µl/min for 840 seconds resulting in an immobilization level of 110 RU. Biotinylated TP-73 peptide (aa 181-190 of SEQ ID NO:1) was immobilized on a Series S Sensor Chip SA (GE Healthcare Life Sciences) at a concentration of 5 µg/ml in PBS-P⁺ with a flow rate of 5 µl/min for 30 seconds resulting in an immobilization level of 400 RU. […] The antibodies were injected at a flow rate of 50 µl/min for 90 seconds contact time and 700 seconds dissociation phase followed by three regenerations with 10 mM glycine-HCl pH 1.7. For the optimized SPR protocol the antibodies were diluted 3-fold starting from 300 nM and dilute down to 1.2 nM and injected for 300 seconds at 30 µl/min followed by 600 seconds dissociation. The surface was regenerated by one injection with 10 mM glycine-HCl pH 1.7. Results obtained from binding kinetics were double-referenced using a blank flow cell and a buffer cycle and were evaluated with a global 1:1 fitting model with RI. Avidities for 11 antibodies and two Fab fragments are depicted in Table 8. […] In addition, some antibodies show preferential binding to aggregated TDP-43 as compared with soluble TDP-43.

[2] = target: T2, recombinant human full-length TDP-43 (TAR DNA-binding protein 43), soluble (human, UniProt Q13148 1-414); assay: SPR, immobilized soluble TDP-43
T2 construct: Used on Luminex beads, coated on ELISA plates, and immobilized or injected in SPR; also called FL TDP-43; TDP-43 protein
Experimental: as §1

[3] = target: T2, recombinant human full-length TDP-43 …; assay: SPR 8K, immobilized soluble TDP-43
Experimental: The instrument was primed with running buffer PBS-P+ and flow cells (Fc) 1 and 2 of channels 1-8 were activated with a fresh solution of EDC/NHS (Amine Coupling Kit, 1:1 ratio of both reagents, GE Healthcare Life Sciences, BR-1006-33) at 10 µL/min for 420 sec. Soluble TDP-43 (Selvita) was diluted in sodium acetate pH 4.5 to a final concentration of 5 µg/mL and injected for 900 sec with a flow rate of 5 µL/min on Fc 2. All flow cells were quenched with 1 M ethanol amine (GE Healthcare Life Sciences, BR-1006-33), at 10 µL/min for 420 sec. Immobilization levels after ethanolamine quenching were 680 RU on all eight channels. Prior to analysis, two Startup cycles were run. Increasing mAbs concentrations were injected in single-cycle kinetics ranging from 1.2 to 100 nM, prepared from a 3-fold serial dilution in running buffer, with a contact time of 300 sec and a dissociation time of 900 sec at a flow rate of 30 µL/min. Each cycle was followed by one regeneration using 10 mM Glycine-HCl pH 1.7 with a contact time of 30 sec at 30 µL/min, followed by a stabilization period of 300 sec. Results obtained from single-cycle kinetics were double-referenced using the blank Fc 1 and buffer cycles and evaluated using Biacore 8 K evaluation software using the 1:1 kinetic fit model with RI and global Rmax. The following kinetic parameters were obtained: association rate constant (ka), dissociation rate constant (kd), affinity constant (KD) and saturation response (Rmax).

[4] = target: T3, TP-51 peptide (aa 352-414 of SEQ ID NO:1) (human); assay: SPR 8K, mAb captured, TP-51 injected
T3 construct: Synthetic peptide (Pepscan)
T3 peptide: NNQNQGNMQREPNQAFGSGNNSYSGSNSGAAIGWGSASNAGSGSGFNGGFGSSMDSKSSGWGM
Experimental: The instrument was primed with running buffer PBS-P+. Fc 1-2 of channels 1-8 (8 K) were activated with a fresh solution of EDC/NHS(Amine Coupling Kit, 1:1 ratio of both reagents, GE Healthcare Life Sciences, BR-1006-33) at 10 µL/min for 420 sec and goat anti-human antibody (GE Healthcare Life Sciences, 29234600) was immobilized at 25 µg/mL in 10 mM sodium acetate pH 5 for 420 sec. Next, all Fc were quenched with 1 M ethanol amine(GE Healthcare Life Sciences, BR-1006-33), for 420 sec. Any non-covalently bound antibodies were removed by two regenerations with 10 mM Glycine-HCl pH 1.7 for 30 sec. Immobilization levels were evaluated following ethanolamine quenching (10000 RU for all channels).
Each cycle started with non-covalent capture of humanized variants which were diluted in running buffer to a final concentration of 2 µg/mL and injected for 60 sec with a flow rate of 10 µL/min. TDP-43 mAbs were captured on channels 1-8, leaving Fc 1 as a blank Fc. Capture levels were evaluated following a 120 sec stabilization period after each mAb injection and ranged from 300-500 RU.
Injections of TP-51 peptide (Pepscan) were performed in single-cycle kinetics with increasing concentrations ranging from 1.2-100 nM prepared from serial 3-fold dilutions. Injections were performed with contact times of 300 sec/injection at a flow rate of 25 µL/min. A dissociation phase of 3600 sec followed the final injection. Sensor surface was regenerated by one injection of 10 mM Glycine-HCl pH 1.7 at a flow rate of 10 µL/min for 120 sec, followed by a stabilization period of 300 sec. Results obtained from single-cycle kinetics were double-referenced using the blank Fc 1 and buffer cycles and evaluated by Biacore 8 K evaluation software with 1:1 kinetic fit model with RI and global Rmax. The following kinetic parameters were obtained: association rate constant (ka), dissociation rate constant (kd), affinity constant (KD) and saturation response (Rmax).

T2 sequence (Q13148 whole entry): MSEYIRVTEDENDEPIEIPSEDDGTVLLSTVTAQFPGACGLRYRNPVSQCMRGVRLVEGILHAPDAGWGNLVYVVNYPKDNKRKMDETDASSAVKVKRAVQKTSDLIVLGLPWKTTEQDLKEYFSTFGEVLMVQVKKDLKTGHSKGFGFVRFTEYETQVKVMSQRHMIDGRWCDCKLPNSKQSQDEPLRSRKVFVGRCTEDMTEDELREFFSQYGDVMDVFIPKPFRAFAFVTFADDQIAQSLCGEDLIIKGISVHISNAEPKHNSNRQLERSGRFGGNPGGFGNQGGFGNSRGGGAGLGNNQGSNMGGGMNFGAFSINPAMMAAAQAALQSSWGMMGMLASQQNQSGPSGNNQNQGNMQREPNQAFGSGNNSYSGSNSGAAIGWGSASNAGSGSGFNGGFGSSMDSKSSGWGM
T1 sequence (Q13148 whole entry): as above

B1: ACI-7069-642A10-Ab1 (antibody, mouse IgG1, V domains shown)
VH: QVQLQQPGAELVKPGASVKLSCKASGYTFTKYWMHWVKQRPGQGLEWIGEINPSNGRTNYNEKFKSKATLTVDKSSSTAYMQLSSLTSEDSAVYYCARYMDYWGQGTSVTVSS
VL: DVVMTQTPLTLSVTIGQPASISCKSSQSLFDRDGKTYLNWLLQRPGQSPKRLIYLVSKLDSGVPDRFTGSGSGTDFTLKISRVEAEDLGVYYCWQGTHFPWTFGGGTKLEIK
notes: Mouse IgG1, kappa, from hybridoma; also called 642A10B11
- Kd [1]: 4.64 nM
- koff [1]: 0.00585 s⁻¹
- kon [1]: 1.26e+06 M⁻¹ s⁻¹

B2: 642D12B4 Fab (Fab, V domains shown)
VH: EVQLQQSGAELVKPGASVRLSCTASGFNIKDPYMHWVRQRPKQGLEWIGRIDPADGNTKYDPKFQGKATLTADTSSNVAYLHLSSLTSEDTAVYYCARFYGSSHWYFDVWGAGTTVTVSS
VL: DIKMTQSPSSMYASLGERVTITCKASQDIKRYLSWYQQKPWKSPKILIYYATSLADGVPSRFSGTGSGQDYSLTISSLESDDVATYYCLQQGESPYTFGGGTKLEIK
notes: Fab fragment; also called Fab fragment of ACI-7069-642D12-Ab1
- Kd [2]: 21.8 nM
- koff [2]: 0.00267 s⁻¹
- kon [2]: 128000 M⁻¹ s⁻¹
- Kd [1]: 21.8 nM
- koff [1]: 0.00176 s⁻¹
- kon [1]: 94000 M⁻¹ s⁻¹

B3: cACI-7069-633B12-Ab1 (human IgG4 S228P chimeric) (antibody, V domains shown)
VH: EVQLQQSGPELVKPGASVKISCKTSGFTFTEYSMHWVKQSHGKSLEWIGGINPNNGGTSYNQKFKGKATLTVDKSSSTAYMELRSLTSEDSAVYYCARESWGQGTTLTVSS
VL: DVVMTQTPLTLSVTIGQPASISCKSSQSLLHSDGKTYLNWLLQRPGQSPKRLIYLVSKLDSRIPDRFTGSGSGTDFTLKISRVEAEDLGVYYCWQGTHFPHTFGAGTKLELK
notes: Murine variable domains on a human IgG4 (S228P) constant domain and human kappa; also called chimeric antibody
- Kd [3]: 0.238 nM
- koff [3]: 9.9e-06 s⁻¹
- kon [3]: 42000 M⁻¹ s⁻¹
- Kd [4]: 1.7 nM
- koff [4]: 0.00021 s⁻¹
- kon [4]: 130000 M⁻¹ s⁻¹

B4: hACI-7069-633B12-Ab1_H19L14 (IgG4) (antibody, V domains shown)
VH: QVQLVQSGAEVKKPGASVKVSCKTSGFTFTEYSMHWVRQAPGQRLEWIGGINPGNAGTSYNQKFKGRVTITVDTSASTAYMELSSLRSEDTAVYYCARESWGQGTTVTVSS
VL: DVVMTQSPLSLPVTLGQPASISCKSSQSLLHSDAKTYLNWLQQRPGQSPRRLIYLVSKLDSGVPDRFSGSGSGTDFTLKISRVEAEDLGVYYCFQGTHFPHTFGQGTKLEIK
- Kd [3]: 1.01 nM
- koff [3]: 3e-05 s⁻¹
- kon [3]: 30000 M⁻¹ s⁻¹
- Kd [4]: 9.4 nM
- koff [4]: 0.0011 s⁻¹
- kon [4]: 120000 M⁻¹ s⁻¹

B5: hACI-7069-633B12-Ab1_H15L14 (IgG4) (antibody, V domains shown)
VH: QVQLVQSGAEVKKPGASVKVSCKASGFTFTEYSMHWVRQAPGQRLEWMGGINPGNAGTSYNQKFKGRVTITVDTSASTAYMELSSLRSEDTAVYYCARESWGQGTTVTVSS
VL: DVVMTQSPLSLPVTLGQPASISCKSSQSLLHSDAKTYLNWLQQRPGQSPRRLIYLVSKLDSGVPDRFSGSGSGTDFTLKISRVEAEDLGVYYCFQGTHFPHTFGQGTKLEIK
- Kd [3]: 1.2 nM
- koff [3]: 3.5e-05 s⁻¹
- kon [3]: 29000 M⁻¹ s⁻¹
- Kd [4]: 8.3 nM
- koff [4]: 0.00094 s⁻¹
- kon [4]: 110000 M⁻¹ s⁻¹

B6: hACI-7069-633B12-Ab1_H20L14 (IgG4) (antibody, V domains shown)
VH: EVQLVQSGAEVKKPGASVKVSCKTSGFTFTEYSMHWVRQAPGQRLEWIGGINPGNAGTSYNQKFKGRVTITVDTSASTAYMELSSLRSEDTAVYYCARESWGQGTTVTVSS
VL: DVVMTQSPLSLPVTLGQPASISCKSSQSLLHSDAKTYLNWLQQRPGQSPRRLIYLVSKLDSGVPDRFSGSGSGTDFTLKISRVEAEDLGVYYCFQGTHFPHTFGQGTKLEIK
- Kd [3]: 1.74 nM
- koff [3]: 4.4e-05 s⁻¹
- kon [3]: 25000 M⁻¹ s⁻¹
- Kd [4]: 11.1 nM
- koff [4]: 0.0014 s⁻¹
- kon [4]: 130000 M⁻¹ s⁻¹

B7: hACI-7069-633B12-Ab1_H16L14 (IgG4) (antibody, V domains shown)
VH: EVQLVQSGAEVKKPGASVKVSCKASGFTFTEYSMHWVRQAPGQRLEWMGGINPGNAGTSYNQKFKGRVTITVDTSASTAYMELSSLRSEDTAVYYCARESWGQGTTVTVSS
VL: DVVMTQSPLSLPVTLGQPASISCKSSQSLLHSDAKTYLNWLQQRPGQSPRRLIYLVSKLDSGVPDRFSGSGSGTDFTLKISRVEAEDLGVYYCFQGTHFPHTFGQGTKLEIK
- Kd [3]: 0.605 nM
- koff [3]: 3.3e-05 s⁻¹
- kon [3]: 55000 M⁻¹ s⁻¹
- Kd [4]: 9.9 nM
- koff [4]: 0.0013 s⁻¹
- kon [4]: 140000 M⁻¹ s⁻¹
